Assay results reported in patent US20060264603A1 (DYAX, published 2006).
Ends that are not written are not given here.

Key:
[1] = molecular target: T1, human plasma Kallikrein (Calbiochem, San Diego, Calif., # 420302) (human, UniProt P03952 20-638); experiment: inhibition; method not described
T1 construct: mature; Bought enzyme coupled to agarose beads with Reactigel (6x); also called pKA; human Kallikrein

[2] = molecular target: T2, Plasmin; experiment: inhibition; method not described
T2 construct: Protease target in the specificity test
T2 sequence (P00747 97-580, chain 1 of 2): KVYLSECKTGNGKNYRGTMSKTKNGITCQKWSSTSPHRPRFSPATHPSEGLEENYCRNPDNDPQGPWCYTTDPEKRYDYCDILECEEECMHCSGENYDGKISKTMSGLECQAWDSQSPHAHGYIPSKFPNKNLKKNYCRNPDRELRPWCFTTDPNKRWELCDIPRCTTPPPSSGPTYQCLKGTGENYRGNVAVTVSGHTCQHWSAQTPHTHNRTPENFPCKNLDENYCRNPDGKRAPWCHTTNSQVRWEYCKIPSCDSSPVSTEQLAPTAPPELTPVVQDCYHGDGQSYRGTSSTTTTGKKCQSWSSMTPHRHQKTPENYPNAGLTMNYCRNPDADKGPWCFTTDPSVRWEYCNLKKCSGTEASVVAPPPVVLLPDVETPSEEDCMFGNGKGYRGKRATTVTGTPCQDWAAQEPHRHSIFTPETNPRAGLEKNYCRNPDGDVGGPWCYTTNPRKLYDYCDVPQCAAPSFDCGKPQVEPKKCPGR
T2 sequence (P00747 581-810, chain 2 of 2): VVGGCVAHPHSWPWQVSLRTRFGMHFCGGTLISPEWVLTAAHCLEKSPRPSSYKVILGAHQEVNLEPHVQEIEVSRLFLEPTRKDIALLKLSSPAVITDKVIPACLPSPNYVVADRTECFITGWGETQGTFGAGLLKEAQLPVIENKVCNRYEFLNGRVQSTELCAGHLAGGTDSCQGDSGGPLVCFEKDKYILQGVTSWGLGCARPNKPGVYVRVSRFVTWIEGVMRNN

[3] = molecular target: T1, human plasma Kallikrein (Calbiochem, …); experiment: preliminary inhibition measurements; method not described
[4] = molecular target: T1, human plasma Kallikrein (Calbiochem, …); experiment: display-phage binding to kallikrein beads; fraction bound relative to parental
[5] = molecular target: T1, human plasma Kallikrein (Calbiochem, …); experiment: display-phage binding to kallikrein beads; pfu eluted / input (10^10 pfu)
[6] = molecular target: T3, Trypsin; experiment: display-phage binding to protease target; trypsin, two washes
T3 construct: Protease target in the specificity test

[7] = molecular target: T1, human plasma Kallikrein (Calbiochem, …); experiment: display-phage binding to protease target
[8] = molecular target: T4, Thrombin; experiment: display-phage binding to protease target
T4 construct: Protease target in the specificity test

[9] = molecular target: T3, Trypsin; experiment: display-phage binding to protease target
[10] = molecular target: T2, Plasmin; experiment: display-phage binding to protease target

T1 sequence (P03952 20-638 limits assumed): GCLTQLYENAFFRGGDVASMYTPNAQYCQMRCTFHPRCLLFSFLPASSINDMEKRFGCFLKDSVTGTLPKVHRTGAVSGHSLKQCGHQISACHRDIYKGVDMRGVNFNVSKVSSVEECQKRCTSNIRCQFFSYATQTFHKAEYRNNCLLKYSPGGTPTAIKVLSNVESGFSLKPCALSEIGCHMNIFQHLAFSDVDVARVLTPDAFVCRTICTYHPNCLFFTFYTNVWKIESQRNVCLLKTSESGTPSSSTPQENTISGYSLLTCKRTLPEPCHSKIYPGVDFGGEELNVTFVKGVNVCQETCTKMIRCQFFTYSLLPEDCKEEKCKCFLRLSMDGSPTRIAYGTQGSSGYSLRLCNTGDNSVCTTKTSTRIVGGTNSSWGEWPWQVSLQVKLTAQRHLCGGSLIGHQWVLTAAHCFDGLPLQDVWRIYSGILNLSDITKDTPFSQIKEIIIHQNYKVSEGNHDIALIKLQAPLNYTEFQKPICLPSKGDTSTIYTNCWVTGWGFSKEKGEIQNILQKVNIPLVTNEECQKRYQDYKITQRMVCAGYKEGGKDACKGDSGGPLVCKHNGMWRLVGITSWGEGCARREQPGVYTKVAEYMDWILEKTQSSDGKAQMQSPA

Row | Binder | Ki ratio against wild-type LACI and BPTI [1] [times] | Ki [2] [µM] | Ki [3] [µM] | Relative Binding [4] | Fraction Bound [5] | relative binding (compared to the parental phage display) [6] | relative binding (compared to the parental phage display) [7] | relative binding (compared to the parental phage display) [8] | relative binding (compared to the parental phage display) [9] | relative binding (compared to the parental phage display) [10]
1 | KKII/3#6 (designed binder, LACI-K1 Kunitz domain variant) MHSFCAFKADDGHCKANHQRFFFNIFTRQCEEFSYGGCGGNQNRFESLEECKKMCTRD | > 100 | 10 | < 0.0005 | 2070 fold relative to LACI(K1) display-phage | 0.0087 fraction of input pfu |  |  |  |  | 
2 | KKII/3#5 (designed binder, LACI-K1 Kunitz domain variant) MHSFCAFKADDGHCKASLPRFFFNIFTRQCEEFIYGGCGGNQNRFESLEECKKMCTRD |  |  |  | 928 fold relative to LACI(K1) display-phage | 0.0039 fraction of input pfu |  |  |  |  | 

Second part, the binder after the results:

Row | Ki ratio against wild-type LACI and BPTI [1] [times] | Ki [2] [µM] | Ki [3] [µM] | Relative Binding [4] | Fraction Bound [5] | relative binding (compared to the parental phage display) [6] | relative binding (compared to the parental phage display) [7] | relative binding (compared to the parental phage display) [8] | relative binding (compared to the parental phage display) [9] | relative binding (compared to the parental phage display) [10] | Binder
3 |  |  |  | 761 fold relative to LACI(K1) display-phage | 3.2e-05 fraction of input pfu |  |  |  |  |  | KKI/3 (a) (designed binder, not fully specified; cysteine pairing not given here, LACI-K1 variant from the first phase of screening; also called KKII/3 (a); clone a) MHSFCAFKADDGRCKGAHLRFFFNIFTRQCEEFIYGGCEGNQNRFESLEECKKMCTRD
4 |  |  |  | 1 fold relative to LACI(K1) display-phage | 4.2e-06 fraction of input pfu | 1 fold relative to parental phage display | 1 fold relative to parental phage display | 1 fold relative to parental phage display | 1 fold relative to parental phage display | 1 fold relative to parental phage display | LACI-K1 (first Kunitz domain of LACI, residues 50-107 of SEQ ID NO:25) (other, also called parental molecule) MHSFCAFKADDGPCKAIMKRFFFNIFTRQCEEFIYGGCEGNQNRFESLEECKKMCTRD
5 |  |  |  | 524 fold relative to LACI(K1) display-phage | 0.0022 fraction of input pfu |  |  |  |  |  | KKI/3 (b) (designed binder, not fully specified; cysteine pairing not given here, LACI-K1 variant from the first phase of screening; also called KKII/3 (b); clone b) MHSFCAFKADDGPCKAIHLRFFFNIFTRQCEEFIYGGCEGNQNRFESLEECKKMCTRD
